# According to article PMC3060920, “Structural Analysis of a Repetitive Protein Sequence Motif in Strepsirrhine Primate Amelogenin” (PLoS ONE, 2011):
# Biological target: the molecule itself
# Assay: dynamic light scattering; self-assembly into nanospheres; 0.4 mg/mL, pH 8, 25 mM Tris buffer, 22°C; Rayleigh sphere model, sphere-equivalent hydrodynamic radii
protein,measurement,value
"rp(H)M180, recombinant His-tagged mouse amelogenin M180 (natural protein, UniProt P63277-1 17-196, looked up, Assembles into nanospheres at pH 8; also called wild type mouse amelogenin; mAmelx; source: E. coli (pQE30), purified (Ni-NTA); not shown: poly-histidine, N-terminal, kept) MPLPPHPGSPGYINLSYEVLTPLKWYQSMIRQPYPSYGYEPMGGWLHHQIIPVLSQQHPPSHTLQPHHHLPVVPAQQPVAPQQPMMPVPGHHSMTPTQHHQPNIPPSAQQPFQQPFQPQAIPPQSHQPMQPQSPLHPMQPLAPQPPLPPLFSMQPLSPILPELPLEAWPATDKTKREEVD",binding result,binds
